Patent US20170355769A1 (AbbVie / Abbott, published 2017)

T1: Human B7-H3-ECD (His tag) (human, UniProt Q5ZPR3 29-461)
T1 construct: SPR analyte; also called huB7-H3; soluble ECD of human B7-H3
T1 sequence: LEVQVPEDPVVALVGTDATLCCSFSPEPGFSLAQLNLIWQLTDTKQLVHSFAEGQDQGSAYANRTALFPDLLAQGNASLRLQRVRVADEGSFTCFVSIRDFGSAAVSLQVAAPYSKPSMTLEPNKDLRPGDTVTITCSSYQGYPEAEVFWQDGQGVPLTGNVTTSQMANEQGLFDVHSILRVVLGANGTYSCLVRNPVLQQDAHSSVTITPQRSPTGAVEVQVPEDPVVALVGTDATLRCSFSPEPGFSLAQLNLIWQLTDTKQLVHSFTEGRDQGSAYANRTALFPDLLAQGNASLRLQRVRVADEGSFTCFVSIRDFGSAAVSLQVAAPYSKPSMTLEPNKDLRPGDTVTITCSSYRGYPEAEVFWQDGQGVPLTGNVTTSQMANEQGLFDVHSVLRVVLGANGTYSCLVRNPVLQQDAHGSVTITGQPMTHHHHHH

T2: Cyno B7-H3-ECD (his tag) (cynomolgus)
T2 construct: SPR analyte; also called soluble ECD of cyno B7-H3
T2 chain: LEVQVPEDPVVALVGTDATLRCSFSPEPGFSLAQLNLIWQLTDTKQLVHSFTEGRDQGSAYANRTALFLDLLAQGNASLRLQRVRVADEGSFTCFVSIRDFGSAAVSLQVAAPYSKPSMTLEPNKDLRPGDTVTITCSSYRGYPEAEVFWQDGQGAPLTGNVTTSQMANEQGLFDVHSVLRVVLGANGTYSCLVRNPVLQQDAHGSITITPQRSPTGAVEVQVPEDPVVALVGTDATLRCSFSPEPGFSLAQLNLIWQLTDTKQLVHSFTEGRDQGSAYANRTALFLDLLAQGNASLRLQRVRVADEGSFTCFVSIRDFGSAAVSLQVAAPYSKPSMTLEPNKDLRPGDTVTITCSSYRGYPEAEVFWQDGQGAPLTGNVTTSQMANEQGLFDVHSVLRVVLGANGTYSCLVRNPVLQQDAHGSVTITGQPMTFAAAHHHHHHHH

T3: Human full length B7-H3 (human, UniProt Q5ZPR3 29-534)
T3 construct: On 3T12 fibroblasts expressing full length human B7-H3 or on NCI-H1650 cells; signal peptide residues 1-28 stated; also called huB7-H3; CD276
T3 sequence: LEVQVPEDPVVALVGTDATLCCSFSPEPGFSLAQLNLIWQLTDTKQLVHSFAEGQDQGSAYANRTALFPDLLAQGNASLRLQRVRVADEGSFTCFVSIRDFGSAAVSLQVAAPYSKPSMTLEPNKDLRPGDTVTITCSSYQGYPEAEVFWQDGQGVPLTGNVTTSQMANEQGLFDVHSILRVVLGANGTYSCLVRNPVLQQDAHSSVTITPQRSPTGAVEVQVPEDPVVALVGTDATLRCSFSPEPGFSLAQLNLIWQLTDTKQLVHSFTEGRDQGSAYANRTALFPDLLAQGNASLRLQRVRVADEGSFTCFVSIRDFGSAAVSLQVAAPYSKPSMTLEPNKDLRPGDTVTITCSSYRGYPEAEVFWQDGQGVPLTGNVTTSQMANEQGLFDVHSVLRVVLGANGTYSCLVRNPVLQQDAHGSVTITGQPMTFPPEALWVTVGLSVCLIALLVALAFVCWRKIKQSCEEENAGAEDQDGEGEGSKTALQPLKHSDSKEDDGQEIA

T4: Mouse B7-H3 on cells (mouse, UniProt Q8VE98 29-316)
T4 construct: whole, on cells
T4 sequence (looked up): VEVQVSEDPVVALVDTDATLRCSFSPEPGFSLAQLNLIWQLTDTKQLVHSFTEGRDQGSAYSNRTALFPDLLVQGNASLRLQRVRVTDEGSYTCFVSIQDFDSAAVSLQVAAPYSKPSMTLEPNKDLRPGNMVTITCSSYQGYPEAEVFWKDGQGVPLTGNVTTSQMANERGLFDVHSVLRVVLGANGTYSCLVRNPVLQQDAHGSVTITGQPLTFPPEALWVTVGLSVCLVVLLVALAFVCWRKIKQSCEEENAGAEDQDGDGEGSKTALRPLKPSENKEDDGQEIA


Key:
[1] = target: T1, Human B7-H3-ECD (His tag); assay: SPR, mAb captured, ECD analyte
Cyno B7-H3-ECD (his tag) = target: T2, Cyno B7-H3-ECD (his tag); assay: SPR, mAb captured, ECD analyte
Human full length B7-H3 [2] = target: T3, Human full length B7-H3; assay: FACS, 3T12 transfectants
Procedure: (§1) A selection of hits were subcloned using the MoFlo (Beckman, Indianapolis, Ind., US) by depositing a single cell per well into 96 well cell culture plates to ensure clonality of the cell line. Resulting colonies were screened for specificity by FACS using mouse 3T12 fibroblast cell lines expressing the human B7-H3, cynomolgous B7-H3 or mouse B7-H3. Isotype of each monoclonal antibody was determined using the Mouse Monoclonal Isostyping Kit (Roche, No. 11-493-027-001, Indianapolis, Ind., USA).

Mouse B7-H3 on cells = target: T4, Mouse B7-H3 on cells; assay: FACS, 3T12 transfectants
Procedure: as §1

[3] = target: T5, Cynomolgous B7-H3 on cells (cynomolgus); assay: FACS, 3T12 transfectants
T5 construct: whole, on cells; also called cyB7-H3; cyno B7-H3
Procedure: as §1

Human full length B7-H3 [4] = target: T3, Human full length B7-H3; assay: FACS (Example 6 method)
Procedure: Cells were harvested from flasks when approximately 80% confluent using Gibco® Cell Dissociation Buffer. Cells were washed once in PBS/1% FBS (FACS buffer) then resuspended at 2.5×10⁶ cells/mL in FACS buffer. 100 μL of cells/well were added to a round bottom 96-well plate. 10 μL of a 10× concentration of mAb/ADC (final concentrations are indicated the figures). Wells were washed twice with FACS buffer and resuspended in 50 μL of secondary Ab (AlexaFluor 488) diluted in FACS buffer. The plate was incubated at 4° C. for one hour and washed twice with FACS buffer. Cells were resuspended in 100 μL of PBS/1% formaldehyde and analyzed on a Becton Dickinson LSRII flow cytometer. Data was analyzed using WinList flow cytometry analysis software.
The parental chAb18 from which the variants were derived was also tested as a comparator.

Row | Binder | Kd [1] | koff [1] | kon [1] | Kd (Cyno B7-H3-ECD (his tag)) | koff (Cyno B7-H3-ECD (his tag)) | kon (Cyno B7-H3-ECD (his tag)) | EC50 (Human full length B7-H3 [2]) | EC50 (Mouse B7-H3 on cells) | EC50 [3] | EC50 (Human full length B7-H3 [4]) | binding result (Mouse B7-H3 on cells)
1 | Ab11 (antibody, mouse IgG1, V domains shown, mouse IgG1/k) VH: EVKLVESGGGLVQPGGSLRLSCATSGFTFTNYYMSWVRQPPGKALEWLGFIRNKANDYTTEYSASVKGRFTISRDNSQSILYLQMNTLRAEDSATYYCARESPGNPFAYWGQGTLVTVSA VL: DIVMTQSPSSLTVTAGEKVTMTCKSSQSLLNSGTQKNFLTWYQQKPGQPPKLLIYWASTRESGVPDRFTGSGSGTDFTLTISSVQAEDLAVYFCQNDYIYPLTFGAGTKLELK | 45 nM | 0.00089 s⁻¹ | 20000 M⁻¹ s⁻¹ | 2.6 nM | 7.2e-05 s⁻¹ | 27000 M⁻¹ s⁻¹ | 23.4 nM | 569 nM | 2.03 nM |  | 
2 | huAb18v10-CZ (antibody, V domains shown, synthon CZ on reduced interchain Cys, ADC, DAR 2.7) VH: EVQLVQSGAEVKKPGSSVKVSCKASGYSFTSYTIHWVRQAPGQGLEWMGYINPNSRNTDYAQKFQGRVTLTADKSTSTAYMELSSLRSEDTAVYYCARYSGSTPYWYFDVWGQGTTVTVSS VL: DIQLTQSPSFLSASVGDRVTITCRASSSVSYMNWYQQKPGKAPKPWIYATSNLASGVPSRFSVSGSGTEHTLTISSLQPEDFATYYCQQWSSNPLTFGQGTKLEIK |  |  |  |  |  |  |  |  |  | 1.19 nM | 
3 | Ab3 (antibody, mouse IgG1, V domains shown, mouse IgG1/k) VH: QVQLQQPGAELVKPGASVKLSCKASGYTFSSYWMHWVKQRPGQGLEWIGLIHPDSGSTNYNEMFKNKATLTVDRSSSTAYVQLSSLTSEDSAVYFCAGGGRLYFDYWGQGTTLTVSS VL: DVVMTQTPLSLPVSLGDQASISCRSSQSLVHSNGDTYLRWYLQKPGQSPKLLIYKVSNRFSGVPDRFSGSGSGTDFTLKITRVEAEDLGVYFCSQSTHVPYTFGGGTKLEIK | 19 nM | 0.01 s⁻¹ | 520000 M⁻¹ s⁻¹ | 26 nM | 0.01 s⁻¹ | 380000 M⁻¹ s⁻¹ | 1.66 nM | 0.94 nM | 1.42 nM |  | 
4 | Ab2 (antibody, mouse IgG1, V domains shown, mouse IgG1/k) VH: QVQLQQPGAELVKPGASVKLSCKASGYTFTSYWMHWVKQRPGQGLEWIGMIHPDSGTTNYNEKFRSKATLTVDKSSSTAYMQLSSLTSEDSAVYYCAVYYGSTYWYFDVWGTGTTVTVSS VL: DVVMTQTPLSLPVSLGDQAYISCRSSQSLVHINGNTYLHWYRQKPGQSPKLLIYKVSNRFSGVPDRFSGSGSGTDFTLKISRVEAEDLGVYFCSQSTHFPFTFGSGTKLEIK | 24 nM | 0.0029 s⁻¹ | 120000 M⁻¹ s⁻¹ | 50 nM | 0.011 s⁻¹ | 230000 M⁻¹ s⁻¹ | 1.7 nM | 1 nM | 1.5 nM |  | 
5 | Ab16 (antibody, mouse IgG1, V domains shown, mouse IgG1/k) VH: EVKLLESGGGLVQPGGSLKLSCAASGFDFSRYWMSWVRQAPGKGLEWIGEINPDSSTINYTPSLKDKFIISRDNAKNTLYLQMSKVRSEDTALYYCARPGFGNYIYAMDYWGQGTSVTVSS VL: DIQMTQTTSSLSASLGDRVTINCRASQDISNFLNWYQQKPDGTVKLLIYYTSRLYLGVPSRFSGSGSGTDYSLTISNLEQEDIATYFCQQGNTLPPTFGGGTKLEIK | 24 nM | 0.0032 s⁻¹ | 140000 M⁻¹ s⁻¹ | 7.5 nM | 0.0056 s⁻¹ | 750000 M⁻¹ s⁻¹ | 3.94 nM | 319 nM | 4.28 nM |  | 
6 | Ab6 (antibody, mouse IgG1, V domains shown, mouse IgG1/k) VH: QVQLQQSGAELMKPGASVKISCKATGYTFSRYWIEWVKQRPGHGLEWIGEILPGSGSTNYNEKFKGKATFTADTSSNTAYMQVSSLTSEDSAVHYCARRGYGYVPYALDYWGQGTSVTVSS VL: EIQMTQTTSSLSASLGDRVTISCRASQDISNSLNWYQQKPDGTVNLLIYYTSRLYSGVPSRFSGSGSGTDYSLTISNLEQEDIATYFCQQGNTLPYTFGGGTKLEIK | 840 nM | 0.01 s⁻¹ | 12000 M⁻¹ s⁻¹ | 410 nM | 0.012 s⁻¹ | 28000 M⁻¹ s⁻¹ | 1.59 nM |  | 1.53 nM |  | no binding

Continued, values first:

Row | Kd [1] | koff [1] | kon [1] | Kd (Cyno B7-H3-ECD (his tag)) | koff (Cyno B7-H3-ECD (his tag)) | kon (Cyno B7-H3-ECD (his tag)) | EC50 (Human full length B7-H3 [2]) | EC50 (Mouse B7-H3 on cells) | EC50 [3] | EC50 (Human full length B7-H3 [4]) | binding result (Mouse B7-H3 on cells) | Binder
7 |  |  |  |  |  |  |  |  |  | 1.27 nM |  | huAb18v3-CZ (antibody, V domains shown, synthon CZ on reduced interchain Cys, ADC, DAR 2.4) VH: EVQLVQSGAEVKKPGSSVKVSCKASGYSFTSYTIHWVRQAPGQGLEWIGYINPNSRNTDYNQKFKDRTTLTADRSTSTAYMELSSLRSEDTAVYYCARYSGSTPYWYFDVWGQGTTVTVSS VL: DIQLTQSPSFLSASVGDRVTITCRASSSVSYMNWYQQKPGKSPKPWIYATSNLASGVPSRFSVSVSGTEHTLTISSLQPEDFATYYCQQWSSNPLTFGQGTKLEIK
8 |  |  |  |  |  |  |  |  |  | 2.25 nM |  | huAb18v2-CZ (antibody, V domains shown, synthon CZ on reduced interchain Cys, ADC, DAR 1.8) VH: EVQLVQSGAEVKKPGSSVKVSCKASGYSFTSYTIHWVRQAPGQGLEWMGYINPNSRNTDYAQKFQGRVTLTADKSTSTAYMELSSLRSEDTAVYYCARYSGSTPYWYFDVWGQGTTVTVSS VL: DIQLTQSPSFLSASVGDRVTITCRASSSVSYMNWYQQKPGKAPKLLIYATSNLASGVPSRFSGSGSGTEFTLTISSLQPEDFATYYCQQWSSNPLTFGQGTKLEIK
9 |  |  |  |  |  |  |  |  |  | 1.27 nM |  | huAb18v1-CZ (antibody, V domains shown, synthon CZ on reduced interchain Cys, ADC, DAR 2.6) VH: EVQLVQSGAEVKKPGSSVKVSCKASGYSFTSYTIHWVRQAPGQGLEWMGYINPNSRNTDYNQKFKDRVTITADKSTSTAYMELSSLRSEDTAVYYCARYSGSTPYWYFDVWGQGTTVTVSS VL: DIQLTQSPSFLSASVGDRVTITCRASSSVSYMNWYQQKPGKAPKLLIYATSNLASGVPSRFSGSGSGTEFTLTISSLQPEDFATYYCQQWSSNPLTFGQGTKLEIK
10 | 0.034 nM | 1.9e-05 s⁻¹ | 540000 M⁻¹ s⁻¹ | ≤ 0.019 nM | ≤ 1e-05 s⁻¹ | 510000 M⁻¹ s⁻¹ | 2.75 nM | 2.39 nM | 2.6 nM |  |  | Ab17 (antibody, mouse IgG2b, V domains shown, mouse IgG2b/k) VH: EVKLVESGGGLVQPGGSLKLSCAASGFTFSSYIMSWVRQTPEKRLEWVASIVSSNITYYPDSMKGRFTISRDNARNILYLQMSSLKSEDTAMYYCARSGTRAWFAYWGQGTLVTVSA VL: DIVLTQSPASLAVSLGQRATISCRASKSVSTSAYSYMHWYQQKPGQPPKLLIYLASNLESGVPARFSGSGSGTDFTLNIHPVEEEDAATYYCQHSRELPYTFGGGTKLEIK
